This note sets out measurements from the RNAGym collection of RNA variant scans (doi:10.7554/elife.80360).

To fix the notation:
B1: HDV Ribozyme (parent)
chain: GGCCGGCAUGGUCCCAGCCUCCUCGCUGGCGCCGGCUGGGCAACAUUCCGAGGGGACCGUCCCCUCGGUAAUGGCGAAUGGGACCCA

The variants in the series derive from B1. The series can be described thus: self-cleavage, relative activity (ratio to wild type); higher = more cleavage; co-transcriptional.
Turning to GGCCGGCAUGGUCCGAGCCUCCUCGCUGGCGCCGGCUGGACAACAUUCCGAGGGGACCGUCCCCUCGGUAAUGGCGAAUGGGACCCA, the self-cleavage is 0.762.
The value for GGCCGGCAUGGUCCCAGCCUCCUCGCUGGCGCCGGCUGGGCAACAUUCCGAGGGGACCGUCCCCUCGGUAUUGGCGAAUCGGACCCA was 0.185.
Then GGCCGGCAUGGUCCCAGCCUCCUCGCUGGCGCCUGCUUGGCAACAUUCCGAGGGGACCGUCCCCUCGGUAAUGGCGAAUGGGACCCA, with 0.248; and GGCCGGCAUGGUCCCAGCCUCCUCGCUGGCGCCGGCUGGGCAACACUGCGAGGGGACCGUCCCCUCGGUAAUGGCGAAUGGGACCCA, with 1.18; and GGCCGGCAUGGUGCCAGCCUCCUCGCUGGCGCCGGCUGGGCAACAUUCCGAGGGGACCGUCCCCUCGGUAAAGGCGAAUGGGACCCA, with 0.0536.
The value for GGCCGGCAUGGUCCCAGCCUCCUCGCUGGUGCCGGCUGAGCAACAUUCCGAGGGGACCGUCCCCUCGGUAAUGGCGAAUGGGACCCA was 0.273; that for GGCUGGCAUGGUCCCAGCCUGCUCGCUGGCGCCGGCUGGGCAACAUUCCGAGGGGACCGUCCCCUCGGUAAUGGCGAAUGGGACCCA was 0.
Take GGCCGGCAUGGUCCCAGCCUCCUCGCUCGCGCCGGCUGGGCAACAUUCCGAGGGGACUGUCCCCUCGGUAAUGGCGAAUGGGACCCA: the self-cleavage came to 0.0369.
Then GGCCGGCAUGGUCCCAGCCUCCUCGCUGGCGCCGGCUGGGCAACAUUCCGAGGGGACCGUCUCCUCGGUAAUGGCGAAUGGGUCCCA, with 0.318; and GGCCGGCAUGGUCCCAGCCUCCUCGCUGGCGCCGGCUGGGCAACAUUCCGUGGGGUCCGUCCCCUCGGUAAUGGCGAAUGGGACCCA, with 1.25; and GGCCGGCAUGGUCCCAGCCUCCUCGCUGGCGCCGGCUGGGCAACAUUACGAGGGGACCGUCUCCUCGGUAAUGGCGAAUGGGACCCA, with 1.05.
Then GGUCGGCAUGGUCCCAGCCUCCUCGCUGGCGCCGGCUGGGCAACAUUCCGAGAGGACCGUCCCCUCGGUAAUGGCGAAUGGGACCCA, with 1; and GGCCGGCAUGGUCCCAGCCUCUUCGCUGGCGCCGGCUGGGCAACAUUCCGAGGGGACCGUCCCCUCGGUAAUGGCGAAUGGGACGCA, with 0.811; and GGCCGGCAUGGUCCCAGCCUCCUCGCUGGCGCCGGCUGGGCAACAUUCCGAGGGGAACGUCCCCUCGGUAAUGGCAAAUGGGACCCA, with 1.18.
The value for GGCCGGCAUGGUCCCAGCCUCCUCGCUGGCGCCGGCUGCGCAACAUUCCGAGGGGACCGUCCCAUCGGUAAUGGCGAAUGGGACCCA was 0.0369.
For GGCCGGUAUGGUCCCAGCCUCCUCGCUGGCGCCGGCUGGGCAACAUUCCGAGGGGACCGUCCCCUCGGUAAUGGCGAAUGCGACCCA, the self-cleavage is 0.383.
Then GGCCGGCAUGGUCCCAGCCUCCUCGCUGGCGCCGGCUAGGCAACAUUCCGAGGGGACCGUCCCCUCGGUAAUGGCGAAUCGGACCCA, with 0.117; and GGCCGGCAUGGUCCCAGCCUCCUCGCUGGCGCCGGCUGGGCAAUAUUCCGAGGGGACCGUCCCGUCGGUAAUGGCGAAUGGGACCCA, with 0.862; and GGCCGGCAUGGUCCCAGCCUCCUCGCUGGCGCCGGCUGGGCAACAUUCCGAGGGGACCGUCCCCUCGGUAAUGACGAAUGGGACCGA, with 0.375.
The value for GGCCGGCAUGGUCCCAGCCUCCUCGCUGGCGCCGGCUGGGCAACAUUCAGAGGGGACCGUCCCCUCGGUAAUGGCGAAUGGAACCCA was 0.104.
The value for GGCCGGCAUGGUCCCAGCCUCCUCGCUGGCGCCGGCUGGGCAACAUUCCGUGGGAACCGUCCCCUCGGUAAUGGCGAAUGGGACCCA was 1.17.
In the case of GGCCGGCAUGGUCCCAGCCUCCUCGCUGGCUCCGGCUGGUCAACAUUCCGAGGGGACCGUCCCCUCGGUAAUGGCGAAUGGGACCCA, the self-cleavage was determined as 0.166.
Regarding GGCCGGCAUGGUCCCAGCCUCCUCGCUGGCGCAGGCUGGGCAACAUUCCGAGGGGACCGUCACCUCGGUAAUGGCGAAUGGGACCCA, the self-cleavage was 0.344.
The value for GGCCGGCAUGGUCCCAGCCUCCUCGCAGGCGCCGGCUGGGCAACAUUCCGAGGGGAACGUCCCCUCGGUAAUGGCGAAUGGGACCCA was 0.855; that for GGCCGGCAUGGUCCCAGCCUCCUCGCUGGCGCGGGCUGGGCAACAUUCCGAGGGGACCGUCCCCUCGGUAAUGGCGAAUGGGCCCCA was 0.252; that for GGCCGGCAUGGUCCCAGCCUCCUCGCUGGCGCCGGCUGGGCAACAUUCCGUGGGGACCGUCCCCUCGGUUAUGGCGAAUGGGACCCA was 0.849.
The value for GGACGGCAUGGUGCCAGCCUCCUCGCUGGCGCCGGCUGGGCAACAUUCCGAGGGGACCGUCCCCUCGGUAAUGGCGAAUGGGACCCA was 0.0396.
Consider GGCCGGCAUGGUCCCAGCCUCCUCGCUGGCGCCGGCUGGGCAACAUUCCGAGGGGAGCGUCCCCUAGGUAAUGGCGAAUGGGACCCA, for which the self-cleavage amounted to 0.923.
GGCCGGCAUGGUCCCAGCCUCCUCGCUGUCGCCGGCUGGGCAAUAUUCCGAGGGGACCGUCCCCUCGGUAAUGGCGAAUGGGACCCA: the self-cleavage was determined as 0.104.
The value for GGCCGGCAUGGUCCCAGCCUCCUCGCUGGCGCCGGCUGGACAACAUUCCGAGGGGACCGUCCCCUCGGUAAUGGCGAAUGGGAACCA was 0.917; that for GGCCGGCAUGGUCCCAGCCUCCUCGCUGGCGCCGGCUUGGCAACAUUCCGAGGGGACCGUCCCCUCGGUAAUGGCGAAUGGGACCGA was 0.0573; that for GGCCGGCAUGGUACCAGCCUCCUCGCUGGCGCCGGCUGGGCAACAUUCCGAGGGGACCGUCCACUCGGUAAUGGCGAAUGGGACCCA was 0.155.
